This passage reports mean fold increase of OD450 results from patent US20210085781A1.

The test deals with recombinant SARS-CoV-2 S1 protein expressed from insect (Sf9) cells (S1-His, SinoBiological, Cat. No. 40591-V08B1) (SARS-CoV-2) (UniProt P0DTC2). Description: ELISA, coated S1 from Sf9 cells, HRP-conjugated lectin 10 ug/mL. For orientation: In an ELISA, binding on a coated surface is turned into a signal by an enzyme label.

Regarding “Salvia sclarea lectin (SSA; Cat. No: H-3501-1)”, the mean fold increase of OD450 came out at 3.97 fold.
